From patent US20250213710A1 (PHENOMIC AI, published 2025)
Values belong to the molecule of their own block, whether it stands above or below them.

How the values were obtained:
[1] = molecular target: integrin αV on ovarian cancer cells (SKOV3) (human) (UniProt P06756); experiment: cell-based or functional assay
[2] = molecular target: integrin β1 on ovarian cancer cells (SKOV3) (human) (UniProt P05556); experiment: cell-based or functional assay
[3] = molecular target: recombinant human CTHRC1 (Collagen Triple Helix Repeat Containing 1) (human) (UniProt Q96CG8); experiment: cell-based or functional assay
Sequence of recombinant human CTHRC1 (Collagen Triple Helix Repeat Containing 1) (human) (Q96CG8 31-243): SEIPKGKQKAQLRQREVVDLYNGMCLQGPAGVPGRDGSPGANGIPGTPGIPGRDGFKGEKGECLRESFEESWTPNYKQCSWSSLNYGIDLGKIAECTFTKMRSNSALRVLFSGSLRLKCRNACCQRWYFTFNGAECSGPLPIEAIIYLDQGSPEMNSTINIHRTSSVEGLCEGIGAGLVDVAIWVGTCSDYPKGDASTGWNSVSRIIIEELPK

mouse CTHRC1 [4] = molecular target: T1, mouse CTHRC1 (mouse, UniProt Q9D1D6 33-245, limits assumed); experiment: assay not named (Table 2 EC50 columns show n/a)
T1 construct: also called muCTHRC1
T1 sequence (Q9D1D6 33-245 limits assumed): as the sequence (Q96CG8 31-243) above, with I3N, G6V, Q11L, L12I, M155L counted along it

rat CTHRC1 [5] = molecular target: T2, rat CTHRC1 (rat, UniProt Q8CG08 33-245, limits assumed); experiment: assay not named (Table 2 EC50 columns show n/a)
T2 sequence (Q8CG08 33-245 limits assumed): as the sequence (Q96CG8 31-243) above, with I3N, G6V, Q11L, L12I, M155L counted along it

[6] = molecular target: recombinant human CTHRC1 (Collagen Triple Helix Repeat Containing 1) (human) (UniProt Q96CG8); experiment: binding EC50 on huCTHRC1 (assay not named)
mouse CTHRC1 [7] = molecular target: T1, mouse CTHRC1; experiment: binding EC50 on muCTHRC1 (assay not named)
rat CTHRC1 [8] = molecular target: T2, rat CTHRC1; experiment: binding EC50 on rat CTHRC1 (assay not named)

Sequence of integrin β1 on ovarian cancer cells (SKOV3) (human) (P05556 21-798): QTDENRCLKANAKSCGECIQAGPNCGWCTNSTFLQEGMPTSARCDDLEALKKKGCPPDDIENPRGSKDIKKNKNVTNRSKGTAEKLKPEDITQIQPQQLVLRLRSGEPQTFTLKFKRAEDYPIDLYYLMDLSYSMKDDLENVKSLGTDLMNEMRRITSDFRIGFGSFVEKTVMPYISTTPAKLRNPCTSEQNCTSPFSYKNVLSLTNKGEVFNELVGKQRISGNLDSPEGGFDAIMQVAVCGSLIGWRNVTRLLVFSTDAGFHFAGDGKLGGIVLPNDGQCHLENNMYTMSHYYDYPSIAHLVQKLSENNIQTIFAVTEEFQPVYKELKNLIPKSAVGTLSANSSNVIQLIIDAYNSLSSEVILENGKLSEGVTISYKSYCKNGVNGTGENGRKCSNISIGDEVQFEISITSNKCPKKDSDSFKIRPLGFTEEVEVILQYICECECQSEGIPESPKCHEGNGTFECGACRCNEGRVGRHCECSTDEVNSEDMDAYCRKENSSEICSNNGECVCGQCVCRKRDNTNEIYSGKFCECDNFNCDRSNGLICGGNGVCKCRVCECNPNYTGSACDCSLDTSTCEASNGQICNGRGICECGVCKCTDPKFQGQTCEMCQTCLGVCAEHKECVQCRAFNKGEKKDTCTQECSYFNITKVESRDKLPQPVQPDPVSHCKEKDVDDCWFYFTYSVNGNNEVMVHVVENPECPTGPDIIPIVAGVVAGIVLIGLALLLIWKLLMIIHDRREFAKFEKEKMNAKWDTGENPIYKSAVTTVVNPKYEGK
Sequence of integrin αV on ovarian cancer cells (SKOV3) (human) (P06756 31-1048): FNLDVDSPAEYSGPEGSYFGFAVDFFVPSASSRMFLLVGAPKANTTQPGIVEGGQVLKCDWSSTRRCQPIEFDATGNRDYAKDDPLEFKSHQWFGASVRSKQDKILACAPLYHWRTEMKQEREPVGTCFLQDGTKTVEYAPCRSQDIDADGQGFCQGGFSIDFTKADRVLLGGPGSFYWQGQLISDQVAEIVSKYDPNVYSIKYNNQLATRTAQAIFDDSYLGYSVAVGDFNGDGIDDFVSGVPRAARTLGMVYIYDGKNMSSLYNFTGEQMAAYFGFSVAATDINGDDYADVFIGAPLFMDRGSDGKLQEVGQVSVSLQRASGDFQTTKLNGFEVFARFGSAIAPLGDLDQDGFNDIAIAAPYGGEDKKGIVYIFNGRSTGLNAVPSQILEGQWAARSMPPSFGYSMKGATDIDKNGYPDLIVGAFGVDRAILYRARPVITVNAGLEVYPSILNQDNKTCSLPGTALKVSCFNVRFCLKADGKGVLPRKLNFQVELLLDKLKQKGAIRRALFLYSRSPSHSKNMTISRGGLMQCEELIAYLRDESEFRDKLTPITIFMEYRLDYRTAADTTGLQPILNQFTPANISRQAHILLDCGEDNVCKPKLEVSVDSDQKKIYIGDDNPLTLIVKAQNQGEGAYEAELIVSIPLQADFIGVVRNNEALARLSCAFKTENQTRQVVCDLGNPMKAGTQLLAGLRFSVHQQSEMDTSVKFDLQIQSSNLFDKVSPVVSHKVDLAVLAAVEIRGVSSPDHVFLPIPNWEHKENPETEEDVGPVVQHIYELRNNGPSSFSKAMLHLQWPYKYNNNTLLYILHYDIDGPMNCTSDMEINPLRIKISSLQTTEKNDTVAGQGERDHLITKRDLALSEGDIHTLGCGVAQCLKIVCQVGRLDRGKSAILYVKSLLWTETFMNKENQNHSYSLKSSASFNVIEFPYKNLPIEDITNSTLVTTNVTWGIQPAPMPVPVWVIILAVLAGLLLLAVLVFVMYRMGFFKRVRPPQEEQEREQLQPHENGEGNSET

Molecule: recombinant human CTHRC1 (Collagen Triple Helix Repeat Containing 1) (from UniProt Q96CG8 31-243)
- cell adhesion of ovarian cancer cells to CTHRC1 after 1 hour with 100 nM integrin αV antibody [1]: 2 fold
- cell adhesion of ovarian cancer cells to CTHRC1 after 1 hour with a combination of integrin β1 antibody and integrin αV antibody [1]: 2 fold
- decrease in cell adhesion of ovarian cancer cells to CTHRC1 after 1 hour with 100 nM integrin αV antibody [1]: 40%
- cell adhesion of ovarian cancer cells to CTHRC1 after 1 hour with 100 nM integrin β1 antibody [2]: 2 fold
- cell adhesion of ovarian cancer cells to CTHRC1 after 1 hour with a combination of integrin β1 antibody and integrin αV antibody [2]: 2 fold
- decrease in cell adhesion of ovarian cancer cells to CTHRC1 after 1 hour with 100 nM integrin β1 antibody [2]: 75%

B3: CTHRC1S-M5 (AB987) (antibody, V domains shown)
VH: EVQLVESGGGLVTPGGSLRLSCAASGFTFSTYSMNWVRQAPGKGLEWVSSISGSSGHIYYADSVRGRFTISRDNAKNSLYLQMNSLRAEDTAVYYCASMHYYYYLDVWGKGTTVTVSS
VL: QAVVTQESALTTSPGETVTLTCRSSTGTVTTSNYVTWVQEKPDHLFTGLIGATNNRAPGVPARFSGSLIGDKAALTITGAQTEDEAIYFCALWYSNHWVFGGGTKLTVL
notes: Monoclonal antibody purified from a hybridoma of a humanized transgenic mouse immunized with rhCTHRC1; also called CTHRCIS-M5; anti-CTHRC1 clone M5
- blocking of cell adhesion to CTHRC1 (cell adhesion assay) [3]: > 50%
- EC50 [6]: 1.85 nM
- EC50 (mouse CTHRC1 [7]): 0.26 nM
- EC50 (rat CTHRC1 [8]): 1.73 nM

The remaining lines, values ahead:

- blocking of cell adhesion to CTHRC1 (cell adhesion assay) [3]: > 50%
- binding result (mouse CTHRC1 [4]): no binding
- binding result (rat CTHRC1 [5]): no binding
- EC50 [6]: 9.76 nM
B1: CTHRC1S-M11 (AB989) (antibody, V domains shown)
VH: QVTLRESGPALVKPTQTLTLTCTFSGFSLSTNVMCVSWIRQPPGKALEWLALIDWDDDKYYSTSLKTRLTISKDTSKNQVVLTMTNMDPVDTATYYCARTGITGTHYYYYYMDVWGKGTTVTVSS
VL: AIQMTQSPSSLSASVGDRVTITCRASQGIRNDLGWYQQKPGKAPKLLIYAASSLQSGVPSRFSGSGFGTDFTLTISSLQPEDFATYYCLQDYNYPWTFGQGTKVEIK
notes: Monoclonal antibody purified from a hybridoma of a humanized transgenic mouse; also called CTHRCIS-M11

- EC50 [6]: 0.05 nM
- EC50 (mouse CTHRC1 [7]): 0.94 nM
- EC50 (rat CTHRC1 [8]): 0.05 nM
B2: CTHRC1S-M14 (AB991) (antibody, V domains shown)
VH: EVQVVESGGGLVQPGGSLRLSCAASRFTFSNYWMSWVRQAPGRGLEWVANIKQDGSEKYYVDSVKGRFTISRDNAKNSLYLQMNSLRAEDTAVYYCAREGGYCSDTRCFFYMDVWGKGTTVTVSS
VL: DIQMTQSPSTLSASVGDRVTITCRASQSIISWLAWYQQKPGKAPKLLIYKASSLEGGVPSRFSGSGSGTDFTLTISSLQPDDFATYYCQQYNSYSRTFGQGTTVEIK
notes: Monoclonal antibody purified from a hybridoma of a humanized transgenic mouse; also called anti-CTHRC1 clone M14
